Test results from patent US20020127721A1.

How the values were obtained:
[1] = target: human coxsackievirus and adenovirus receptor (CAR) (human) (UniProt P78310); experiment: cell-based or functional assay
[2] = target: human coxsackievirus and adenovirus receptor (CAR) (human) (UniProt P78310); experiment: flow cytometry, RmcB staining of 3T3 cells after Ad5CMVhCAR:CaPi gene transfer
[3] = target: human coxsackievirus and adenovirus receptor (CAR) (human) (UniProt P78310); experiment: flow cytometry, RmcB staining of CHO cells after Ad5CMVhCAR:CaPi gene transfer

Chain of UniProt P78310 (P78310 20-365): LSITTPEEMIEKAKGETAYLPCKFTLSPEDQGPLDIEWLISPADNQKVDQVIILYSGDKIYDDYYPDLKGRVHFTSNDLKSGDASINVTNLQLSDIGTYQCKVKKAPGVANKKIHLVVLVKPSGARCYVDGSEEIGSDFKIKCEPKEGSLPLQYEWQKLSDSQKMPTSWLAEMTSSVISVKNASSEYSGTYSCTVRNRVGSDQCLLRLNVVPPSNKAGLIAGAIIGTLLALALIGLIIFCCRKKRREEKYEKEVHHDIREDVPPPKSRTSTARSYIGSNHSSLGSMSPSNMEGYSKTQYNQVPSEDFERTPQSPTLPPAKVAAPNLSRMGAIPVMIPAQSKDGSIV

Substance	infection of 3T3 cells after CAR gene transfer (% eGFP-positive by FACS; 3% without CAR) [1] [%]	infection of CHO cells after CAR gene transfer (% eGFP-positive by FACS; 0% without CAR) [1] [%]	percent of cells positive for CAR [2] [%]	percent of cells positive for CAR [3] [%]
Ad5 fiber (endogenous, non-recombinant fiber of the control virus Ad5RSVeGFP) (from UniProt P11818 1-581)	21	57	–	–
monoclonal antibodies (mAbs) against CAR (RmcB) (antibody)	–	–	92	96
